According to patent US20170253660A1:

Experiments:
[1] = molecular target: human CD16 Fc receptor on NK92-MI cells (human) (UniProt P08637); experiment: cell-based or functional assay; conditions: for LAN1-CD16 Potency: scale: relative to m3F8
[2] = molecular target: human CD32 Fc receptor on NK92-MI cells (human); experiment: cell-based or functional assay; conditions: for LAN1-CD32 Potency: scale: relative to m3F8

human CD16 Fc receptor on NK92-MI cells (human), sequence (P08637 17-254): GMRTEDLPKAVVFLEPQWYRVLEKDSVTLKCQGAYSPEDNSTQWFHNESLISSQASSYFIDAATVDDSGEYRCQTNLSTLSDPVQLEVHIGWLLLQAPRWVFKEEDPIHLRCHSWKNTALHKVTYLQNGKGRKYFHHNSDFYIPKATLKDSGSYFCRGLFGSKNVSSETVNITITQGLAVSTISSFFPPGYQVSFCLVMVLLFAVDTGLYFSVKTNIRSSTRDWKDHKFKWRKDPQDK

Row | Antibody potency using NK92-CD16 ADCC, BE(1)N (relative potency (m3F8 = 1)) [1] | Antibody potency using NK92-CD16 ADCC, LAN1 (relative potency (m3F8 = 1)) [1] | Antibody potency using NK92-CD16 ADCC, NMB7 (relative potency (m3F8 = 1)) [1] | Antibody potency using NK92-CD16 ADCC, SHEP1 (relative potency (m3F8 = 1)) [1] | Antibody potency using NK92-CD16 ADCC, SKNLP (relative potency (m3F8 = 1)) [1] | M14-CD16 Potency (relative to m3F8) [1] | LAN1-CD16 Potency [1] | M14-CD32 Potency (relative to m3F8) [2] | LAN1-CD32 Potency [2] | Substance
1 | 1 | 0.4 | 1 | 1 | 1 | 1 | 4 | 6 | 2 | 14.G2a (antibody)
2 | – | 4 | – | 3 | 8 | 9 | – | 21 | 8 | ch14.18 (antibody)
3 | – | 0.2 | – | – | – | – | – | – | – | heat modified m3F8 (antibody)
4 | 1 | 1 | 1 | 1 | 1 | 1 | 1 | 1 | 1 | murine 3F8 (antibody)
